# Measurements: paper doi:10.1101/648071 (bioRxiv, 2019)
# Several values for one entry are separate records, joined by “and”; a condition that tells them apart may be missing. Equal entries are not always repeated. Where two headings read alike, the source gives them in different places.
# T1: SpaO N-terminal domain (SpaO 1-145) (Salmonella Typhimurium strain SL1344, UniProt P40699 1-145)
# T1 sequence (looked up): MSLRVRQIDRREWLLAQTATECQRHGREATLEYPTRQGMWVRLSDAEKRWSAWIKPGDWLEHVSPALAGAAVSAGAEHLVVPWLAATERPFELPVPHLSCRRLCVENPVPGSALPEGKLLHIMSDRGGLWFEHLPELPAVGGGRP
# T2: SpaO SPOA1-SPOA2 construct (SpaO 140-297) (Salmonella Typhimurium strain SL1344, UniProt P40699 140-297)
# T2 sequence (looked up): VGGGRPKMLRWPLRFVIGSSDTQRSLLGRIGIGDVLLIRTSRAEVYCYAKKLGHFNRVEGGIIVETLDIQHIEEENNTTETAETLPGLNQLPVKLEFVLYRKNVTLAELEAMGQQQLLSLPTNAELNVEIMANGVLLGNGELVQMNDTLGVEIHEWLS
# T3: SpaO, full-length, C-terminal Strep-tag (Salmonella Typhimurium strain SL1344, UniProt P40699 1-303)
# T3 sequence (looked up): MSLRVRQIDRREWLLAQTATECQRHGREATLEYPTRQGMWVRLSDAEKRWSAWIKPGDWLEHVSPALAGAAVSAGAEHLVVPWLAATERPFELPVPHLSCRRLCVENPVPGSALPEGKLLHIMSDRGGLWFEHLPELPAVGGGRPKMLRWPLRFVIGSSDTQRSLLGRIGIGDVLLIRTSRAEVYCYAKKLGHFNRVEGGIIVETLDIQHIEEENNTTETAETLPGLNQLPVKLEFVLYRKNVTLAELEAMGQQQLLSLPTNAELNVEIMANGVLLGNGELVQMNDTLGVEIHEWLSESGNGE
# T4: SpaO in the SpaO/SpaOC/OrgB/InvC complex (spaO+orgB+invC co-expression) (Salmonella Typhimurium strain SL1344, UniProt P40699 1-303)
# T4 sequence (looked up): T3 sequence (looked up)
# B1: SpaOC, short product of the spaO gene, C-terminal Strep-tag (natural protein, Salmonella Typhimurium strain SL1344, UniProt P40699 203-303, looked up)
# chain: METLDIQHIEEENNTTETAETLPGLNQLPVKLEFVLYRKNVTLAELEAMGQQQLLSLPTNAELNVEIMANGVLLGNGELVQMNDTLGVEIHEWLSESGNGE
# B2: SpaOC in the SpaO/SpaOC/OrgB/InvC complex (spaO+orgB+invC co-expression) (natural protein, Salmonella Typhimurium strain SL1344, UniProt P40699 203-303, looked up)
# chain: B1 chain
# What was measured:
# [1] = target: SpaO-2SpaOC heterotrimer (Salmonella Typhimurium strain SL1344) (UniProt P40699); experiment: native MS
# [2] = target: SpaO-2SpaOC heterotrimer (Salmonella Typhimurium strain SL1344) (UniProt P40699); experiment: native MS; remark: listed apart in the source
# [3] = target: OrgB, C-terminal His-tag (co-expressed with spaO) (Salmonella Typhimurium strain SL1344); experiment: native MS
# [4] = target: OrgB (co-expressed with Strep-tagged InvC or InvC fragments) (Salmonella Typhimurium strain SL1344); experiment: native MS
# [5] = target: InvC, full-length, C-terminal Strep-tag (Salmonella Typhimurium strain SL1344) (UniProt P0A1B9); experiment: native MS
# Sequence of InvC, full-length, C-terminal Strep-tag (Salmonella Typhimurium strain SL1344) (P0A1B9 whole entry, the tested form may be a part): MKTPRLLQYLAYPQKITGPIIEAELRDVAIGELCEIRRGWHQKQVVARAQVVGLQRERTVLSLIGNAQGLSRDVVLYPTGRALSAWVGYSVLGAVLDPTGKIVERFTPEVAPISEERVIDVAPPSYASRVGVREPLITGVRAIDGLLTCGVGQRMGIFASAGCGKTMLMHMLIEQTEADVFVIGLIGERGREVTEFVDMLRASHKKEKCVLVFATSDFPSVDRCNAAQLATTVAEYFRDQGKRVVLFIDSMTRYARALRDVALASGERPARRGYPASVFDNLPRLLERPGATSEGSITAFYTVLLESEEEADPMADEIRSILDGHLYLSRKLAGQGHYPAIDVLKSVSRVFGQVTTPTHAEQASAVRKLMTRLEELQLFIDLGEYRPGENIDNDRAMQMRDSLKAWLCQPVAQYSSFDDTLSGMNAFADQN
# [6] = target: T1, SpaO N-terminal domain (SpaO 1-145); experiment: SEC-MALS
# [7] = target: T1, SpaO N-terminal domain (SpaO 1-145); experiment: native MS
# [8] = target: T2, SpaO SPOA1-SPOA2 construct (SpaO …); experiment: native MS
# native MS = target: the molecule itself; experiment: native MS
# [9] = target: T1, SpaO N-terminal domain (SpaO 1-145); experiment: ITC
# [10] = target: T3, SpaO, full-length, C-terminal Strep-tag; experiment: native MS
# [11] = target: T4, SpaO in the SpaO/SpaOC/OrgB/InvC …; experiment: native MS
molecule,measurement,setting,value
SpaO-2SpaOC heterotrimer (from UniProt P40699 1-303; P40699 203-303) (complex),stoichiometry N,[1],2
same,stoichiometry N,[2],2
"OrgB, C-terminal His-tag (co-expressed with spaO) (natural protein)",stoichiometry N,[3],2
OrgB (co-expressed with Strep-tagged InvC or InvC fragments) (natural protein),stoichiometry N,[4],2
same,stoichiometry N (OrgB per InvC),[5],2
B1,stoichiometry N,[6],2 SpaOC per SpaO(1-145)
same,stoichiometry N,[7],4 SpaOC per SpaO(1-145)
same,stoichiometry N,[8],2 SpaOC per SpaO(140-297)
same,stoichiometry N,native MS,2 and 4
same,Kd,[9],1040 ± 210 nM
same,stoichiometry N,[10],2 SpaOC per SpaO
B2,stoichiometry N,[11],2 SpaOC per SpaO
